Assay [1] deals with human Integrin αVβ3 (human) (UniProt P06756). Briefly: flow cytometry, M21 melanoma cells, 0.5 µg antibody per 5x10^5 cells, against isotype matched control.
Assay [2] addresses Rabbit Integrin αvβ3 (Rabbit). Briefly: flow cytometry, VX7 rabbit carcinoma cells, 0.5 µg antibody per 5x10^5 cells, against isotype matched control.
Assay [3] deals with Hamster Integrin αvβ3 (Hamster). The experiment in a line: binding of 125I-labeled Vitaxin to CCL-49 hamster melanoma cells.
In assay [4] the target is Rabbit Integrin αvβ3 (Rabbit). Briefly: binding of 125I-labeled Vitaxin to VX7 rabbit carcinoma cells.
The target in assay [5] is human Integrin αVβ3 (human) (UniProt P06756). The experiment in a line: binding of 125I-labeled Vitaxin to M21 human melanoma cells.
For a further assay, the target named is Rat Integrin αvβ3 (Rat) (UniProt Q8R2H2). The experiment in a line: flow cytometry, RG2 rat glioma cells, 0.5 µg antibody per 5x10^5 cells, against isotype matched control. (In flow cytometry, cells or beads pass a laser one at a time.)
Assay [6] concerns the target Hamster Integrin αvβ3 (Hamster). Briefly: binding of 125I-labeled Vitaxin to cell lines.
In assay [7] the target is Rabbit Integrin αvβ3 (Rabbit). Briefly: binding of 125I-labeled Vitaxin to cell lines.
In assay [8] the target is Rabbit Integrin αvβ3 (Rabbit). Briefly: binding of 125I-labeled Vitaxin to RK1 rabbit kidney epithelium cells.
The target in assay [9] is human Integrin αVβ3 (human) (UniProt P06756). Briefly: binding of 125I-labeled Vitaxin to HUVEC primary human endothelium.
The target in assay [10] is Hamster Integrin αvβ3 (Hamster). The experiment in a line: flow cytometry, CCL-49 hamster melanoma cells, 0.5 µg antibody per 5x10^5 cells, against isotype matched control.
Assay [11] addresses human Integrin αVβ3 (human) (UniProt P06756). Briefly: flow cytometry, HMVEC endothelial cells, 0.5 µg antibody per 5x10^5 cells, against isotype matched control.

Rat Integrin αvβ3 (Rat), sequence (Q8R2H2 26-787): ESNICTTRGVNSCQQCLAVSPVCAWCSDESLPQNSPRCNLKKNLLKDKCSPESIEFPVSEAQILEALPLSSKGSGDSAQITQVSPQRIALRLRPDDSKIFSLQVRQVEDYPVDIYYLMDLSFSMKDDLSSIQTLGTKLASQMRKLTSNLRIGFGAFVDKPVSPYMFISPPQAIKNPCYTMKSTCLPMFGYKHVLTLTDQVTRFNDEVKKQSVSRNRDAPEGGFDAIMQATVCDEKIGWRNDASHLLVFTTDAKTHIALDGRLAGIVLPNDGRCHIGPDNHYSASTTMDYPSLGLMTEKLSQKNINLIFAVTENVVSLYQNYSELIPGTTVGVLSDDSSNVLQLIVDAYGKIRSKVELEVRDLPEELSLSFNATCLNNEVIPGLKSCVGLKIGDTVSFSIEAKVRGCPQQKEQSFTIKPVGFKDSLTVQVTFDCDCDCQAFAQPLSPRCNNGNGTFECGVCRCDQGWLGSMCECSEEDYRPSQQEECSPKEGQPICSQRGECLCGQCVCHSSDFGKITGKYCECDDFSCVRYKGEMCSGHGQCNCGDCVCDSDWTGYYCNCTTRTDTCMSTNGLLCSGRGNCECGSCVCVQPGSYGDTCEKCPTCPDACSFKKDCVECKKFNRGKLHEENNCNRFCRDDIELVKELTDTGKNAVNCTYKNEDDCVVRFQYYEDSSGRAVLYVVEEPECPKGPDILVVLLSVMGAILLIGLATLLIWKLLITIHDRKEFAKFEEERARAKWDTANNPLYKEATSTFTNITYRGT
human Integrin αVβ3 (human), sequence (P06756 31-1048, chain 1 of 2): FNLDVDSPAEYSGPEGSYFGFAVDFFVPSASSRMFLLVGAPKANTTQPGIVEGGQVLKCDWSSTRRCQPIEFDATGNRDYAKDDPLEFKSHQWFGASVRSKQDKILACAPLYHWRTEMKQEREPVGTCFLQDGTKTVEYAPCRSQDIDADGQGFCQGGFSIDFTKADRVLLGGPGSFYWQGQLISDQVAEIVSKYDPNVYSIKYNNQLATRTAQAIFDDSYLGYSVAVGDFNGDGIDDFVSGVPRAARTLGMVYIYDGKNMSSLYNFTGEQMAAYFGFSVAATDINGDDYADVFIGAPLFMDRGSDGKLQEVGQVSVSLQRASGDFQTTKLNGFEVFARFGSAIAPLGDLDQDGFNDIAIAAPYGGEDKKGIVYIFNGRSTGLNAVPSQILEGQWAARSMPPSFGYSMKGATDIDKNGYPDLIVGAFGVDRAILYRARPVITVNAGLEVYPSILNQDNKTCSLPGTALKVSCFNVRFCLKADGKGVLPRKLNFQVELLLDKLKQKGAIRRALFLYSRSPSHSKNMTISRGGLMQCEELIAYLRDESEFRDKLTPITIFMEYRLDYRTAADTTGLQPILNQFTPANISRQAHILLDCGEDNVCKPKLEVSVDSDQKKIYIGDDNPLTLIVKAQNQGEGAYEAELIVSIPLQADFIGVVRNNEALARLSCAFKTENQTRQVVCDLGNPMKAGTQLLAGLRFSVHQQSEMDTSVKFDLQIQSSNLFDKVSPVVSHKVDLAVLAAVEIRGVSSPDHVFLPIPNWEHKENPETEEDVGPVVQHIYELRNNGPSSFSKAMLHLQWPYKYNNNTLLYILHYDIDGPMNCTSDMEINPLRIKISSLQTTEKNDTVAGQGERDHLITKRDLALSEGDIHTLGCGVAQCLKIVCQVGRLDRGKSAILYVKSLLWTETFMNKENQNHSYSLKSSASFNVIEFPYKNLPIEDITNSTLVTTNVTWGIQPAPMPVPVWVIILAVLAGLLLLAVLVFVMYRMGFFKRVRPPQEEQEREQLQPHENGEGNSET
human Integrin αVβ3 (human), sequence (P05106 27-788, chain 2 of 2, further chain): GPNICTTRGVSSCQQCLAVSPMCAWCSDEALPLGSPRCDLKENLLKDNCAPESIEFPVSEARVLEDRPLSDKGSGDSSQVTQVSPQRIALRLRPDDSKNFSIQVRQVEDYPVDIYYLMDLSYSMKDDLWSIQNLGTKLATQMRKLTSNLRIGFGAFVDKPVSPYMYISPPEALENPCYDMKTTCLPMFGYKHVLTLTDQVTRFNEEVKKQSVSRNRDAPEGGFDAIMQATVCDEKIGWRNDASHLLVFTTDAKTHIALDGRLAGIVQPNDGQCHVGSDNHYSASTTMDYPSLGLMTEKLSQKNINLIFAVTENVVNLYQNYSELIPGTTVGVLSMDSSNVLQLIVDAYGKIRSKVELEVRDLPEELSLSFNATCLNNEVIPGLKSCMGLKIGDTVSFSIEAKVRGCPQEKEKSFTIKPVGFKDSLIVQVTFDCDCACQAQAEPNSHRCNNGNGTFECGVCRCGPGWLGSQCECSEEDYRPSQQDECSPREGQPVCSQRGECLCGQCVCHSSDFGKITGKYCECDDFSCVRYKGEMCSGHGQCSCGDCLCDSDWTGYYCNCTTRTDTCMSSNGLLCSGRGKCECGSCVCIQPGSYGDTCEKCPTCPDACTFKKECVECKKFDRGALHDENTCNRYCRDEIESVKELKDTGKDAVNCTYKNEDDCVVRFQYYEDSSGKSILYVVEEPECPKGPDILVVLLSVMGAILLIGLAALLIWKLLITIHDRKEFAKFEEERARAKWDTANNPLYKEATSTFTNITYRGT

By Kd is commonly meant the free concentration of one partner at which half of the binding sites on the other are occupied at equilibrium, for simple one-to-one binding. Low values mean a tighter complex, high ones a looser complex. As to “Vitaxin® (humanized monoclonal antibody MEDI-522)”, the Fold Increase Over Control (mean channel fluorescence) in [1] turned out to be 73 fold; in [2] it was 17 fold; with Rat Integrin αvβ3 (Rat), 0.95 fold; in assay [10], 12 fold; in assay [11], 8.9 fold. Besides, the Kd came out at 6.9 nM in assay [3]; 8.9 nM in assay [4]; 2.2 nM in assay [5]; 23 nM in assay [8]; 3.3 nM in assay [9]. Further, the Binding Sites (binding sites) in [4] stood at 160000; in assay [5] it was 130000; in assay [8], 42000; in assay [9] it was 81000. For the same substance, the values for the fold lower affinity than for human αvβ3 in assay [6] and in [7] were 2 to 3 fold and 4 to 10 fold, respectively.

Turning to “LM609, mouse anti-human αVβ3 Integrin mAb (antibody)”, the Fold Increase Over Control (mean channel fluorescence) worked out at 65 fold in assay [1]; 3 fold in assay [2]; 2.3 fold with Rat Integrin αvβ3 (Rat); 7.2 fold in [10]; 4.3 fold in assay [11].

Regarding F11, mouse anti-rat β3 mAb (antibody), the results for the Fold Increase Over Control (mean channel fluorescence) (in assay [1]; in assay [2]; with Rat Integrin αvβ3 (Rat)) were 0.99 fold, 1 fold and 11 fold, respectively.

The values above are taken from patent US20040001835A1, “Prevention or treatment of cancer using integrin alphavbeta3 antagonists in combination with other agents” (MedImmune, Inc., priority 2002, published 2004).
